{"source": "patent US11649460B2", "about": "“DNA aptamers, method for inhibiting human galectin-1 and method of treating a mammal in need thereof” (priority 2020, dated 2023)", "molecules": {"B1": {"name": "CTGACACAGCAGGTTGGTGCCAACTAACACCATAAGAATACCCCGCTCCAAATAAGCCCACACGTAAACCCGAGTCGAGCAATCTCGAAAT (nucleic acid)", "DNA": "CTGACACAGCAGGTTGGTGCCAACTAACACCATAAGAATACCCCGCTCCAAATAAGCCCACACGTAAACCCGAGTCGAGCAATCTCGAAAT", "modifications": "chemistry not given here", "notes": "DNA aptamer that recognizes human galectin-1"}}, "key": {"human galectin-1 (hGal1)": {"molecular_target": "T1, human galectin-1 (hGal1) (Homo sapiens, UniProt P09382)", "T1 construct": "42; made in house; host or cells: E. coli strain M-15", "T1 sequence (P09382 2-135)": "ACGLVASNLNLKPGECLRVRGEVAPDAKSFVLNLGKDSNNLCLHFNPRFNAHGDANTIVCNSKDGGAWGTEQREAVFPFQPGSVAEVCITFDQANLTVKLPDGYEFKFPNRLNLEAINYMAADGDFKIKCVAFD", "assay": "Tryptophan fluorescence quenching (Stern-Volmer)", "assay_type": "binding", "details": "Stern-Volmer fit; 5 μM hGal1, aptamer 0 to 7.2 μM; read-out: apparent dissociation constant", "procedure": "Fluorescence measurements were taken by a spectrofluorimeter HITACHI F-4500, the spectra were collected by excitation and emission at a rate of 240 nm per min, using a 5 nm slit widths and recorded at room temperature. A total of 5 μM hGal1 solution was incubated for 10 hours with aptamer aliquots as quencher, from 0 to 7.2 μM, in PBS 1× buffer. The spectra were obtained between 300-450 nm after excitation at 295 nm and all buffer contributions were corrected for measurements. As previously described, the log of fluorescence quenching was evaluated by plotting it versus log of aptamer concentration. The Stern-Volmer equation was used to estimate the number of interacting sites (n) and the apparent kD.\nHuman galectin-1 tryptophan residue has an emission peak at 348 nm after […] exited. SEQ ID NO.: 4 promotes changes the fluorescence spectrum of Trp68, which is the sole Trp in the subunit of hGal1 and is one of the residues constituting its CRD. Upon the aptamer addition, fluorescence emission decreased (FIG. 1C). The fluorescence quenching log versus aptamer concentration log measurements was plotted and it was fitted with Stern-volmer equation. The best fit established apparent dissociation constant of approximately 31.9 nM and a binding site of 1.5 (FIG. 1D)."}, "alkylated Gal1": {"molecular_target": "T2, alkylated Gal1 (Homo sapiens, UniProt P09382)", "T2 construct": "42; made in house; host or cells: E. coli strain M-15", "T2 sequence (P09382 2-135)": "as above", "assay": "Hemagglutination inhibition assay, alkylated Gal1", "assay_type": "cell-based", "details": "alkylated Gal1 5 μM", "procedure": "FIG. 15 illustrates the hemagglutination test with constant protein concentration at 5 μM and titration of aptamers SEQ ID NO.: 4 and SEQ ID NO.: 9. (a) Titration with aptamer 4. The hemagglutination of native Gal1 was inhibited from the concentration of 10 μM of this compound.\nHemagglutination assay was adopted to assess the capacity of SEQ ID NO.: 4 in inhibiting the lectin cross-linking aggregation of red blood cells (RBC), as previously described. Briefly, using a 96-well microplates appropriate amounts of 5 μM hGal1 were blended with 50 μL of aptamer in an increasing concentrations manner (0-40 μM) in PBS 1× buffer (pH 7.4). Following, 50 μL of 3% purified type B+ RBC in PBS. After 2 h of room temperature incubation, the plate was photographed and the hemagglutination area was estimated by area calculator Sketchandcalc™ and the results were expressed as relative agglutination.\nIt was observed that treating hGal-1 with Iodoacetamide, which covalently binds the acetamide group in all solvent accessible cysteines sulfhydryl side chain, abolishes the anti-hemagglutinating activity of the aptamer. According to the proposed binding mode, this happens because Cysteines 2, 88 and 130 interact directly with the aptamer and adding the acetamide group to their side chains would disrupt specific aptamer-protein interactions (FIG. 13C)."}, "[1]": {"molecular_target": "T3, native human galectin-1 (hGal1) (Homo sapiens, UniProt P09382)", "T3 construct": "42; made in house; host or cells: E. coli strain M-15", "T3 sequence (P09382 2-135)": "as above", "assay": "Thermofluor thermal shift assay (TSA), native galectin-1", "assay_type": "binding", "details": "5 μM protein", "in_short": "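Purified native or alkylated hGal1 (5 μM) was incubated 30 min with increasing aptamer SEQ ID NO.: 4 concentrations in PBS 1× with 5× SYPRO Orange. Samples were heated 25–95 °C at 1 °C/min, and melting temperature was derived from the fluorescence denaturation curves.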"}}}
{"molecule": "B1", "values": [{"measurement": "Kd", "setting": "human galectin-1 (hGal1)", "value": "~31.9", "unit": "nM"}, {"measurement": "effect on hemagglutination by alkylated Gal1", "setting": "alkylated Gal1", "value": "no observed effect"}, {"measurement": "variation of denaturation temperature (Tm) of native hGal1", "setting": "[1]", "value": "greater variation"}, {"measurement": "variation of denaturation temperature (Tm) of native hGal1", "setting": "[1]; listed as SEQ ID NO.: 4", "value": "marked decrease in Tm"}]}
